{
  "source": "paper doi:10.1101/2025.01.04.631317",
  "target": "RSV post-fusion F (Flys-GCN without StrepII-tag) (Respiratory Syncytial Virus)",
  "assay": "cryo-EM structure",
  "data": [
    {"substance": "RSV post-fusion F (Flys-GCN without StrepII-tag)", "values": [
      {"measurement": "stoichiometry N", "result": 3}
    ]}
  ]
}
